Tested on: peptide library, one residue held at a place counted from the S/T acceptor
Test: relative phosphorylation of the sub-library (ratio to the mean residue at this position); higher = residue favoured
How it was run: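 Relative sub-library phosphorylation is a ratio to the mean residue at the same position. Purified recombinant kinases were incubated under kinase-specific conditions with biotinylated degenerate peptide sub-libraries, each fixing one residue at one position around a central Ser/Thr, using 50 μM peptide and 50 μM ATP spiked with γ-32P-ATP for 90 min. Spots captured on streptavidin membranes were phosphorimaged and quantified by densitometry.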

Sequence of EIF2AK3, construct: aa536-1116, human (Q9NZJ5 536-1116, looked up): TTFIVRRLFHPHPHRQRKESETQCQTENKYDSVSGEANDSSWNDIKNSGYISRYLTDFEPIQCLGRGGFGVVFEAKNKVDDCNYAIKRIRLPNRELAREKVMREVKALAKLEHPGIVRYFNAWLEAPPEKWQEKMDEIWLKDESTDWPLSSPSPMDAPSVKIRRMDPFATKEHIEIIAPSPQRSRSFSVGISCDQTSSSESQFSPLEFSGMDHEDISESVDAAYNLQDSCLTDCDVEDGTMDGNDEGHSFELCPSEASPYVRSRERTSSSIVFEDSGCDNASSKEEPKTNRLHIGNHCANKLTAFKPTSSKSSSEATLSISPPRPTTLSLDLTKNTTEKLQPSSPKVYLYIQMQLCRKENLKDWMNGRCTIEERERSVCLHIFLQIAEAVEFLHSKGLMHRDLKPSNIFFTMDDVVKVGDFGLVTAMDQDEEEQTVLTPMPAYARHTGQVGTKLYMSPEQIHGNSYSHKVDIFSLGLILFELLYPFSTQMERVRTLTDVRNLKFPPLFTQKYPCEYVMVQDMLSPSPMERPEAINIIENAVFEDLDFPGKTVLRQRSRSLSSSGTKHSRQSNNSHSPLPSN
Sequence of WNK1, construct: aa171-529, human (Q9H4A3 171-529, looked up): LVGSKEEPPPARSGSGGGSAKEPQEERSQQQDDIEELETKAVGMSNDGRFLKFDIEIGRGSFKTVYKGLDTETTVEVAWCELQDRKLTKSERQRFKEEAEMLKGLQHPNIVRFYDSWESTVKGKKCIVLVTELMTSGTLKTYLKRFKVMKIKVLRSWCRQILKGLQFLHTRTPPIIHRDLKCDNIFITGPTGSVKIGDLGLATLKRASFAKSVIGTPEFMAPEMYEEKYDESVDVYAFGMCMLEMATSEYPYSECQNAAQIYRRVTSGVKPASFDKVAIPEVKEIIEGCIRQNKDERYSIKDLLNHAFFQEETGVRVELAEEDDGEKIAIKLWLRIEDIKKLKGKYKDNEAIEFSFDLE
Sequence of PDPK1, construct: Full length, human (O15530 whole entry, looked up): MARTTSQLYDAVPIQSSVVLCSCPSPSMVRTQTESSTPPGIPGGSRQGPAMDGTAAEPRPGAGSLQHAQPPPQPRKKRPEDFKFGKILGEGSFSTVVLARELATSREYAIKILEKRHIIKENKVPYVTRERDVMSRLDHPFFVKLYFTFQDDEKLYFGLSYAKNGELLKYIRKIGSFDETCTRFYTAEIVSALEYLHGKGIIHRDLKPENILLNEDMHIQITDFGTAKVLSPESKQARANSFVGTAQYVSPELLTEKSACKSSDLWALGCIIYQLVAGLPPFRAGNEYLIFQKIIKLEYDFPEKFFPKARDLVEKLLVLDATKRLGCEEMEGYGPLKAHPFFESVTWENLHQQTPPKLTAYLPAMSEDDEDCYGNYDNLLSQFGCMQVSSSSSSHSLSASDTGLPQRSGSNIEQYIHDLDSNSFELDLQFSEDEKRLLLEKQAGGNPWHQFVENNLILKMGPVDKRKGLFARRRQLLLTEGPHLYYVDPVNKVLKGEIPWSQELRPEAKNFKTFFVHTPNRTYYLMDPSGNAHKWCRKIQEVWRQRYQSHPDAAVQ

WNK1, construct: aa171-529, human (from UniProt Q9H4A3)
relative phosphorylation
Details | at +1 | at +2 | at +3 | at +4 | at -1 | at -2 | at -3 | at -4 | at -5
A fixed | 0.732 | 1.03 | 0.811 | 0.927 | 1.25 | 1.57 | 0.952 | 1.02 | 0.944
D fixed | 0.238 | 1.07 | 0.679 | 0.746 | 0.328 | 0.241 | 0.314 | 0.487 | 0.493
E fixed | 0.257 | 0.75 | 0.619 | 0.759 | 0.445 | 0.263 | 0.371 | 0.536 | 0.53
F fixed | 1.18 | 0.759 | 1.52 | 1.24 | 0.802 | 0.764 | 0.799 | 0.86 | 1.12
G fixed | 0.84 | 0.934 | 0.828 | 0.839 | 1.1 | 2.18 | 0.926 | 0.88 | 0.867
H fixed | 0.762 | 0.794 | 1.17 | 0.888 | 0.887 | 1.31 | 0.979 | 1 | 0.932
I fixed | 1.17 | 1.24 | 0.89 | 1.13 | 0.75 | 0.748 | 0.85 | 0.951 | 0.955
K fixed | 1.22 | 1.19 | 1.43 | 1.5 | 2.19 | 1.44 | 2.48 | 2.01 | 1.82
L fixed | 1.34 | 0.984 | 0.958 | 1.02 | 0.891 | 0.641 | 0.951 | 1.02 | 1.22
M fixed | 1.82 | 0.899 | 0.954 | 0.952 | 1.07 | 0.597 | 0.855 | 0.952 | 0.974
N fixed | 0.895 | 0.665 | 0.783 | 0.719 | 0.719 | 0.714 | 0.606 | 0.872 | 0.712
P fixed | 0.288 | 0.457 | 0.582 | 0.936 | 0.586 | 1.25 | 1.01 | 0.763 | 0.819
Q fixed | 1.18 | 0.65 | 0.734 | 0.861 | 1.21 | 0.954 | 0.845 | 0.795 | 0.698
R fixed | 2.01 | 2.97 | 1.69 | 1.37 | 2.5 | 2.25 | 2.63 | 1.83 | 1.54
V fixed | 0.986 | 1.21 | 0.809 | 0.992 | 0.971 | 0.957 | 0.961 | 1.06 | 1.12
W fixed | 0.888 | 0.635 | 1.23 | 1.08 | 0.574 | 0.462 | 0.621 | 0.856 | 1.11
Y fixed | 1.18 | 0.759 | 1.31 | 1.03 | 0.735 | 0.669 | 0.858 | 1.1 | 1.15
pThr fixed | 0.58 | 0.863 | 0.707 | 0.803 | 0.61 | 0.852 | 0.854 | 0.882 | 0.702
pTyr fixed | 0.662 | 0.911 | 0.849 | 0.78 | 0.789 | 0.573 | 0.806 | 0.666 | 0.637

EIF2AK3, construct: aa536-1116, human (from UniProt Q9NZJ5)
relative phosphorylation
Details | at +1 | at +2 | at +3 | at +4 | at -1 | at -2 | at -3 | at -4 | at -5
A fixed | 0.888 | 1.08 | 0.836 | 0.863 | 0.745 | 0.615 | 1.02 | 1.02 | 1.07
D fixed | 0.348 | 0.419 | 0.491 | 0.684 | 0.71 | 3.5 | 1.61 | 1.18 | 1
E fixed | 0.676 | 0.277 | 0.555 | 0.678 | 0.62 | 3 | 1.23 | 0.94 | 0.712
F fixed | 1.08 | 0.921 | 1.09 | 0.92 | 1.21 | 1.22 | 1.04 | 1.05 | 1.32
G fixed | 1.02 | 1.14 | 1.89 | 1.14 | 0.458 | 0.748 | 0.825 | 1.05 | 0.984
H fixed | 0.898 | 1.28 | 1.31 | 1.12 | 1.21 | 0.712 | 0.911 | 1.08 | 1.17
I fixed | 1.05 | 0.748 | 0.703 | 0.838 | 1.2 | 0.527 | 0.819 | 0.774 | 0.837
K fixed | 1.12 | 1.06 | 1.09 | 1.28 | 1.19 | 0.472 | 0.798 | 0.942 | 0.996
L fixed | 0.907 | 0.609 | 0.8 | 0.822 | 1.11 | 0.877 | 1.06 | 0.79 | 1.01
M fixed | 1.6 | 0.823 | 0.814 | 0.871 | 1.22 | 0.942 | 1.06 | 0.956 | 0.9
N fixed | 0.86 | 1.12 | 0.821 | 0.95 | 0.879 | 0.698 | 0.856 | 0.788 | 0.788
P fixed | 0.245 | 0.662 | 1.48 | 1.24 | 0.582 | 0.429 | 0.749 | 0.871 | 0.837
Q fixed | 1.43 | 0.719 | 0.778 | 0.865 | 0.837 | 0.615 | 0.767 | 0.751 | 0.713
R fixed | 2.11 | 2.2 | 1.43 | 1.53 | 1.34 | 0.576 | 0.934 | 1.1 | 1.06
V fixed | 0.92 | 0.709 | 0.664 | 0.78 | 1.25 | 0.544 | 0.839 | 0.825 | 0.769
W fixed | 0.809 | 1.44 | 1.25 | 1.3 | 1.07 | 0.892 | 1.42 | 1.66 | 1.49
Y fixed | 1.04 | 1.79 | 0.999 | 1.12 | 1.36 | 0.629 | 1.06 | 1.22 | 1.34
pThr fixed | 0.47 | 0.307 | 0.402 | 0.715 | 0.478 | 1.31 | 1.05 | 0.722 | 0.848
pTyr fixed | 0.828 | 0.387 | 0.715 | 0.796 | 0.726 | 0.527 | 1.05 | 0.682 | 0.847

PDPK1, construct: Full length, human (from UniProt O15530)
relative phosphorylation
Details | at +1 | at +2 | at +3 | at +4 | at -1 | at -2 | at -3 | at -4 | at -5
A fixed | 0.609 | 1.18 | 0.927 | 1.02 | 0.812 | 1.48 | 1 | 1.13 | 1.12
D fixed | 0.37 | 0.618 | 0.647 | 0.802 | 0.519 | 0.523 | 0.571 | 0.935 | 1.25
E fixed | 0.402 | 0.537 | 0.665 | 0.815 | 0.518 | 0.561 | 0.615 | 0.927 | 1.04
F fixed | 4.59 | 1.23 | 1.31 | 0.991 | 1.22 | 1.33 | 0.794 | 0.958 | 0.875
G fixed | 0.638 | 0.747 | 1.19 | 1.13 | 1.43 | 1.16 | 1.04 | 1.27 | 1.21
H fixed | 0.602 | 1.26 | 1.04 | 1.01 | 0.954 | 1 | 0.863 | 0.982 | 0.919
I fixed | 1.15 | 1.16 | 1.07 | 0.955 | 0.673 | 0.733 | 0.789 | 0.909 | 0.973
K fixed | 0.798 | 0.985 | 0.977 | 1.01 | 1.32 | 1.18 | 1.18 | 1.06 | 0.956
L fixed | 1.16 | 1.01 | 0.967 | 1 | 0.958 | 0.974 | 0.779 | 0.863 | 0.826
M fixed | 1.89 | 1.13 | 1.01 | 1.02 | 1.22 | 0.866 | 0.775 | 0.846 | 0.859
N fixed | 0.515 | 0.759 | 0.822 | 0.822 | 1.11 | 0.931 | 0.754 | 0.866 | 0.864
P fixed | 0.556 | 0.755 | 0.774 | 1.39 | 1.03 | 0.834 | 1 | 1.11 | 1.14
Q fixed | 0.622 | 0.722 | 0.77 | 0.871 | 0.847 | 0.94 | 0.843 | 0.89 | 0.788
R fixed | 0.875 | 1.18 | 1.29 | 1.21 | 1.61 | 1.49 | 3.72 | 1.18 | 1.09
V fixed | 0.664 | 1.21 | 1.02 | 0.868 | 0.661 | 0.71 | 0.762 | 1.07 | 1.19
W fixed | 0.709 | 0.98 | 1.28 | 1.13 | 0.873 | 0.987 | 0.749 | 0.994 | 0.919
Y fixed | 0.848 | 1.54 | 1.25 | 0.947 | 1.24 | 1.3 | 0.761 | 1.02 | 0.99
pThr fixed | 0.497 | 0.664 | 0.71 | 0.809 | 0.604 | 0.738 | 0.854 | 1.12 | 1.62
pTyr fixed | 0.432 | 0.616 | 0.903 | 0.852 | 0.738 | 0.821 | 1.13 | 2.5 | 2.94

From the supplement of paper PMC9876800
